According to patent publication US20260049134A1 (UNIVERSITY OF FLORIDA RESEARCH FOUNDATION, published 2026):
One block for each binder: values may come before it.

Legend:
DCC = target: T1, DCC; assay: ELISA on coated DCC-His, 150 ng IgG1; None 0.095
T1 construct: coated protein in the ELISA; also called DCC-His (R&D Systems)
T1 chain: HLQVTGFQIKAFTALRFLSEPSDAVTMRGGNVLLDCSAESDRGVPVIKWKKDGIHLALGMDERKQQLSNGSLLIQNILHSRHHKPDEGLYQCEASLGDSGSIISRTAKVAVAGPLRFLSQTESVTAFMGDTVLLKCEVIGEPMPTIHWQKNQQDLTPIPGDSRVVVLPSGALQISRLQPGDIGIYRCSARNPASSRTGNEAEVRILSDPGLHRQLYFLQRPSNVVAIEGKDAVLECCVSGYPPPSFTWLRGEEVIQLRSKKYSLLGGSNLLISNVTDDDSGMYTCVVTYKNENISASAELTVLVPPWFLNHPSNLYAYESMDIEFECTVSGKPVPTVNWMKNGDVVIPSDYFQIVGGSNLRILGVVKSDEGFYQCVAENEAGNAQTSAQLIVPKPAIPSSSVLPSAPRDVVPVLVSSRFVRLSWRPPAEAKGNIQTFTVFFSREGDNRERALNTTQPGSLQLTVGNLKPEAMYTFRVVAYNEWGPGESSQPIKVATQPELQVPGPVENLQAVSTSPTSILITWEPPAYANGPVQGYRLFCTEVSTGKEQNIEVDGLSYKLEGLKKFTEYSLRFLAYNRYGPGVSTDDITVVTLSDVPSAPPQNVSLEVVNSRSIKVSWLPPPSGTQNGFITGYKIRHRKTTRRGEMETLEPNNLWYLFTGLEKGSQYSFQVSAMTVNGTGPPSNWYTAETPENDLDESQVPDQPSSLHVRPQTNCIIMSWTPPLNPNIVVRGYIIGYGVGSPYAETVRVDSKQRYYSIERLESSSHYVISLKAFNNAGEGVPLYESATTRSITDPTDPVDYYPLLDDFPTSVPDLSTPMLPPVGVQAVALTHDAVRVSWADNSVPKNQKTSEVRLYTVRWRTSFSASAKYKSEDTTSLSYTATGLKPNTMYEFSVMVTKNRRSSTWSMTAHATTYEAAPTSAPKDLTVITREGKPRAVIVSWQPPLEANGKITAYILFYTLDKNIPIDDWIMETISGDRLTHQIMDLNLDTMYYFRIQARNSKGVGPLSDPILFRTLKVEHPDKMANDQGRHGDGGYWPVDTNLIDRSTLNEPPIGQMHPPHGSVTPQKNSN
Method: (§1) Recombinant purified ECDs (50-150 ng) of each putative target protein were coated, incubated with 150 ng of the indicated primary antibody, and binding was detected using a peroxidase-conjugated anti-human Fab secondary antibody. Heatmap represents averages of technical triplicates. (8B) Target validation via siRNA knockdown. H929 cells were transfected with siRNA pools targeting the putative antibody targets ICAM1, CADM1, and PTPRG. Cells were then subjected to cognate IgG binding analysis via flow cytometry. (NT, non-targeting siRNA).
(§2) ELISA ELISA was conducted as described previously. Briefly, 50-150 ng of antigen was coated overnight in half-area 96-well plates at 4° C., blocked with 3% BSA at 37° C. for 1 h, and 150 ng of chimeric rabbit/human IgG1 was added, incubating for 2 h at 37° C. […] After incubating at 37° C. for 15 min-1 h (depending on intensity of controls), data were acquired using a SpectraMax M5 plate reader (Molecular Devices).

IL13RA1 = target: T2, IL13RA1; assay: ELISA on coated IL13RA1-Fc-His
T2 construct: coated protein in the ELISA; also called IL13RA1-Fc-His (R&D Systems)
T2 chain: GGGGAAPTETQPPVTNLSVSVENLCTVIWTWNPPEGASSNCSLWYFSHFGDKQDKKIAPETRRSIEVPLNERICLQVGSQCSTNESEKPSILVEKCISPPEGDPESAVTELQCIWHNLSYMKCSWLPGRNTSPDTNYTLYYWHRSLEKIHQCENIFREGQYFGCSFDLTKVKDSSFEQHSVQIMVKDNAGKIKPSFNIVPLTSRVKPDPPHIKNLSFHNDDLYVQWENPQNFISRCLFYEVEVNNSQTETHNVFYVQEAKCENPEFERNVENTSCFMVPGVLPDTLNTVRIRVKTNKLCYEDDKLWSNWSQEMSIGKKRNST
Method: as §1, §2

[1] = target: T3, PTPRG, endogenous in H929 multiple myeloma cells (human, UniProt P23470 20-1445); assay: flow cytometry, H929 + NT Green siRNA; None 416
T3 construct: Native protein on H929 cells (flow cytometry, siRNA knockdown) and in H929 lysates (IP/MS); also called phosphatase receptor type γ

SLAMF7 = target: T4, SLAMF7; assay: ELISA on coated SLAMF7-StrepTag
T4 construct: coated protein in the ELISA; also called SLAMF7-StrepTag
T4 chain: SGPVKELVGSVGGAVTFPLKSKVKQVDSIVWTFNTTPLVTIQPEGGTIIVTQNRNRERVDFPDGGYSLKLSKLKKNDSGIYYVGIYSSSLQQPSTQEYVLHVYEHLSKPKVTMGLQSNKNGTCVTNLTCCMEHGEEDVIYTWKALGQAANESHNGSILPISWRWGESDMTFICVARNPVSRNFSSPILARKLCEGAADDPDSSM
Method: as §1, §2

T3 sequence (P23470 20-1445 limits assumed): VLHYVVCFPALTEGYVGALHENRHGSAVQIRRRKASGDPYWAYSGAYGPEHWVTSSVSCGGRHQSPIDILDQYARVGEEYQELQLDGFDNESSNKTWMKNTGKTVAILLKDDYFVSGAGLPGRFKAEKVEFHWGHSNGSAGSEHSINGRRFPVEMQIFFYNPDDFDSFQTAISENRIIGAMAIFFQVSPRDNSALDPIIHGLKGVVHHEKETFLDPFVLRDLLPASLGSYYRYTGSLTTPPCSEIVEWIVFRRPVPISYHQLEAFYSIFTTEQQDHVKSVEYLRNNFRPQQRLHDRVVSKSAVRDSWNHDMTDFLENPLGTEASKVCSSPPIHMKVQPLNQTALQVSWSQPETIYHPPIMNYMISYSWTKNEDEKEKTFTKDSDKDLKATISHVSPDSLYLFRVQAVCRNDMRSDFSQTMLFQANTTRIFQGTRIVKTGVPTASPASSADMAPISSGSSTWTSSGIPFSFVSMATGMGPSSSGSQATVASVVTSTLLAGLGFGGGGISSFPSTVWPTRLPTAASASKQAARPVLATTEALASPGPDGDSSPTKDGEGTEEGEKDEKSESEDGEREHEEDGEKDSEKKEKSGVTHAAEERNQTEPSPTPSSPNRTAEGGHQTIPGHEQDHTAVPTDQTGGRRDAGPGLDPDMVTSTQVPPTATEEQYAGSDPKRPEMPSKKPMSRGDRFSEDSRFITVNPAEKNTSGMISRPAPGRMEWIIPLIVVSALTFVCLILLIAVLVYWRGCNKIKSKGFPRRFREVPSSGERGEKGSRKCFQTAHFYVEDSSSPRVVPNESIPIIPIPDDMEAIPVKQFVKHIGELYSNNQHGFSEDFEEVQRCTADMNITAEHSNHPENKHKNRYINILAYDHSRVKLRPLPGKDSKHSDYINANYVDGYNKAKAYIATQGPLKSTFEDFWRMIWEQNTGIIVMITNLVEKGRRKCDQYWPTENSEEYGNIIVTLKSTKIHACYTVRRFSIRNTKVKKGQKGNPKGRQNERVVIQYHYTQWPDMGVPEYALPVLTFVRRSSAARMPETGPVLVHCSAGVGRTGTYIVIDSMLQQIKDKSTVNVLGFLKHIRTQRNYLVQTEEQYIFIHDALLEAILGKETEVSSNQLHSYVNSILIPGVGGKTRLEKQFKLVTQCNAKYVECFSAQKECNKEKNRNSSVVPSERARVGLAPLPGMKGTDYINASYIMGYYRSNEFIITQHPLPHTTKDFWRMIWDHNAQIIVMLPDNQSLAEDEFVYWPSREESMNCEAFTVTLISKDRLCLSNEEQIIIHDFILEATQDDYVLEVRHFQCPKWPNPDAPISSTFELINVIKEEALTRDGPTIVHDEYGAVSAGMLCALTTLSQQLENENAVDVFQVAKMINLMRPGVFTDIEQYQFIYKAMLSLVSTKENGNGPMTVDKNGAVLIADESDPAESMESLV

- ELISA Absorbance (405 nm-570 nm) (DCC): 0.079
- mAb binding (MFI) [1]: 483
B1: TH9-0022 (antibody, human IgG1, kappa, L234A L235A, V domains shown)
VH: QSLEESGGRLVTPGTPLTLTCTVSGFSLSSYAMNWVRQAPGKGLEWIGIINSYGSTYYASWAKGRFTISKTSTTVDLKITSPTTEDTATYFCARVTYDSYGYGYAPYGMDLWGPGTLVTVSS
VL: LVMTQTPSSTSNAVGGTVTIKCQASQSIGNVLAWYQQKPGQPPKLLIYAASTLASGVPSRVGGSRSGTEYTLTISGVQREDAATYYCLGSDSDSDIAFGGGTELEILR
notes: also called TH9-022; negative control
- binding result (IL13RA1): no binding (tested: 150 ng IgG1 per well)
- binding result (SLAMF7): no binding (tested: 150 ng IgG1 per well)

- ELISA Absorbance (405 nm-570 nm) (DCC): 0.068
B7: HW-81 chimeric rabbit-human IgG1 LA/LA/PG (antibody, V domains shown)
VH: QKQLVESGGGLVTPGGTLTLTCTVSGFSLSSNGVSWVRQAPGKGLEYIGLIRSIGSTYYATWAKGRFTISKTSTTVDLKITSPTTEDTATYFCARGGYRNGFKLWGPGTLVTVSS
VL: QPVLTQSPSVSAALGASAKLTCTLSSAHKTYYIEWYQQQHPGKAPRYLMQLQSDGSYTKGTGVPDRFSGSSSGADRYLIISSVQAEDEADYICGVIDSAVYVFGGGTQLTVTG
notes: Fc-silenced (L234A/L235A/P329G) IgG1, lambda; Alexa Fluor 647-labeled in single-step flow cytometry; Cluster C-45
- binding result (IL13RA1): no binding (tested: 150 ng IgG1 per well)
- binding result (SLAMF7): no binding (tested: 150 ng IgG1 per well)

- ELISA Absorbance (405 nm-570 nm) (DCC): 0.065
B8: HW-97 chimeric rabbit-human IgG1 LA/LA/PG (antibody, V domains shown)
VH: QKQLVESGGRLVTPGTPLTLTCTVTGIDLSSHGMSWVRQAPGKGLEWIGVIYPSGSTWYASWARGRFTISKTSTTVDLKMTSLTTEDTATHFCARGDVGGADNNIWGPGTLVTVSS
VL: SFVLTQPASVQVDLGQTVSLTCTAETLSRSYASWYQQKPGQAPVLLIYRDTSRPSGVPDRFSGSSSGNTATLTISGAQAGDEADYYCATSDGSGSSYQYVFGGGTQLTVTG
notes: Fc-silenced (L234A/L235A/P329G) IgG1, lambda; Alexa Fluor 647-labeled in single-step flow cytometry; Prototype of cluster C-97
- binding result (IL13RA1): no binding (tested: 150 ng IgG1 per well)
- binding result (SLAMF7): no binding (tested: 150 ng IgG1 per well)

- ELISA Absorbance (405 nm-570 nm) (DCC): 0.057
B9: HW-101 chimeric rabbit-human IgG1 LA/LA/PG (antibody, V domains shown)
VH: QEQLVESGGRLVTPGTPLTLTCKASGFSLGKYDMSWVRQAPGKGLEWIGTIYAGSGSTWYASWAKGRFTISKTSTTVDLKMTSLTTEDTATYFCARDFLGVNSIWGPGTLVTISS
VL: SFVLTQPASVQVNLGQTVSLTCTADTLSRSYASWYQQKPDQAPVLLIHRDTSRPSGVPDRFSGSNSGNTATLTISGAQAGDEADYYCATSDGSGSNFHFVFGGGTQLTVTG
notes: Fc-silenced (L234A/L235A/P329G) IgG1, lambda; Alexa Fluor 647-labeled in single-step flow cytometry; Cluster C-97
- binding result (IL13RA1): no binding (tested: 150 ng IgG1 per well)
- binding result (SLAMF7): no binding (tested: 150 ng IgG1 per well)

- ELISA Absorbance (405 nm-570 nm) (DCC): 0.072
B10: HW-113 chimeric rabbit-human IgG1 LA/LA/PG (antibody, V domains shown)
VH: QKQLVESGGGLVQPGGSLTLTCTVSGFSLNKYYMGWFRQAPGKGLEWIGVISRSGDTYYSSWAKGRFTISKASTTVDLRITSPTTEDTATYFCARDASSPGFHGDRLDLWGQGTLVTVSS
VL: SFVLTQPASVQVNLGQTVSLTCTADTLSRSYASWYQQKPGQAPVLLIYRDTSRPSGVPDRFSGSSSGNTATLTISGAQAGDEADYYCATSDGIGSNYLWVFGGGTQLTVTG
notes: Fc-silenced (L234A/L235A/P329G) IgG1, lambda; Alexa Fluor 647-labeled in single-step flow cytometry
- binding result (IL13RA1): no binding (tested: 150 ng IgG1 per well)
- binding result (SLAMF7): no binding (tested: 150 ng IgG1 per well)

The remaining lines, values behind:

B2: HW-42 chimeric rabbit-human IgG1 LA/LA/PG (antibody, V domains shown)
VH: QSVKESEGGLFKPADTLTLTCTVSGFSLSSNEISWVRQAPGEGLEYIGIIDTGGRAYYAVWARSRSTITRNTNLNTVTLKMTSLTAADTATYFCARGGVDTEWYAFSSWGPGTLVTVPS
VL: SFVLTQPASVQVNLGQTVSLTCTADTLSRRYASWYQQKPGQAPVLLIFRDTSRPSGVPDRFSGSSSGDTATLTISGAQAGDEADYYCATSDGSGSNYQYVFGGGTQLTVTG
notes: Fc-silenced (L234A/L235A/P329G) IgG1, lambda; Alexa Fluor 647-labeled in single-step flow cytometry; Cluster C-1
- ELISA Absorbance (405 nm-570 nm) (DCC): 0.098
- binding result (IL13RA1): no binding (tested: 150 ng IgG1 per well)
- mAb binding (MFI) [1]: 8410
- binding result (SLAMF7): no binding (tested: 150 ng IgG1 per well)

B3: HW-70 chimeric rabbit-human IgG1 LA/LA/PG (antibody, V domains shown)
VH: QSLEESGGRLVTPGTPLTLTCTVSGFSLSSNAMSWVRQAPGKGLEWIGTIDGYGYTYYASWAKGRFTVSKTSTTVDLKITSPTTEDTATYFCAREIYLGSNFWGPGTLVTISS
VL: SFVLTQPASVQVNLGQTVSLTCTADTLSRRYASWYQQKPGQAPVLLIYRDTSRPSGVPDRFSGSSSGNTATLTISGAQAGDEADYYCATADGSGSSYQFVFGGGTQLTVTG
notes: as for B2
- ELISA Absorbance (405 nm-570 nm) (DCC): 0.086
- binding result (IL13RA1): no binding (tested: 150 ng IgG1 per well)
- mAb binding (MFI) [1]: 12600
- binding result (SLAMF7): no binding (tested: 150 ng IgG1 per well)

B4: HW-8 chimeric rabbit-human IgG1 LA/LA/PG (antibody, V domains shown)
VH: QSLEESGGRLVTPGTPLTLTCTVSGFSLSSYAMSWVRQAPGKGLEWIGAISTGGSTTYASWAKGRFTISKTSSTTVDLKMTSLTTEDTATYFCVRHFRLWGPGTLVTISS
VL: QVLTQTPSSVSAAVGGTVTIKCQASQSIGSALAWFQQKPGQRPKLLIYRASNLASGVPSRFKGSGSGTEFALTISGVQREDAATYYCLGGAAAVWAFGAGTNVEIKR
notes: Fc-silenced (L234A/L235A/P329G) IgG1, kappa; Alexa Fluor 647-labeled in single-step flow cytometry; Cluster C-45
- ELISA Absorbance (405 nm-570 nm) (DCC): 0.074
- binding result (IL13RA1): no binding (tested: 150 ng IgG1 per well)
- binding result (SLAMF7): no binding (tested: 150 ng IgG1 per well)

B5: HW-28 chimeric rabbit-human IgG1 LA/LA/PG (antibody, V domains shown)
VH: QKQLVESGGRLVTPGTPLTLTCTASGFSLSSNAMSWVRQAPGEGLQWIGTISSGGSTYYASWAKGRFTISKTSTTVTLKMTSLTTEDTATYFCARGADLHRLWGPGTLVTVSS
VL: SFVLTQPASVQVNLGQTVSLTCTGKPLSRSFASWYQQKPGQAPVLVIYRDTSRPSGVPDRFSGSSSGNTATLTISGAQAGDEADYYCATSDGSGSSYQYVFGGGTQLTVTG
notes: as for B7
- ELISA Absorbance (405 nm-570 nm) (DCC): 0.128

B6: HW-56 chimeric rabbit-human IgG1 LA/LA/PG (antibody, V domains shown)
VH: QSVKESEGGLFKPTDTLTLTCTASGFTVSTNAVTWVRQAPGNGLEYIGTIGRSGSAYFASWAKRRSTLTRDINLNTVTLKMTSLTAADTATYFCVRGSPGYRTAISIWGPGTLVTISS
VL: AVMTQTPSSTSAAVEGTVTINCQASQSISNRLSWFQQKPGQPPKLLIYQASTLASGVPSRFKGSGSGTEFTLTISGVQREDAATYYCLGSYSSSDASFGGGTKLEIKR
notes: as for B4
- ELISA Absorbance (405 nm-570 nm) (DCC): 0.088

B11: HW-16 chimeric rabbit-human IgG1 LA/LA/PG (antibody, V domains shown)
VH: QSLEESGGRLVTPGTPLTLTCTASGFSLSSYAMSWVRQAPGKGLEWIGTMPTGGGTYYASWAKGRFTISKTSTTVDLQITSPTTEDTATYFCAKHWNIWGPGTLVTISS
VL: DIVLTQTPSSTSTAVGDTVTINCRASQSIGRNLAWFQQKPGQPPKLLIYRASNLASGVPSRFKGSGSRTQFTLTISGVQREDAATYYCLGSYSSSDTAFGGGTELEILR
notes: as for B4
- ELISA Absorbance (405 nm-570 nm) (DCC): 0.129
